Experimental data: the RNAGym collection of RNA variant scans (doi:10.1093/molbev/msab373)

B1: Azoarcus group I ribozyme (parent)
chain: GUGCCUUGCGCCGGGAAACCACGCAAGGGAUGGUGUCAAAUUCGGCGAAACCUAAGCGCCCGCCCGGGCGUAUGGCAACGCCGAGCCAAGCUUCGGCGCCUGCGCCGAUGAAGGUGUAGAGACUAGACGGCACCCACCUAAGGCAAACGCUAUGGUGAAGGCAUAGUCCAGGGAGUGGCGAAAGUCACACAAACCGG

Variants of: B1
Experiment: reverse-splicing fitness (ratio to wild type); higher = more active; in vitro selection; Mg2+ level not given
Method in brief: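 An in vitro group I ribozyme library with randomized positions was T7-transcribed and gel-purified. In triplicate, 10 pmol RNA in EPPS pH 7.5 was reacted with 50 pmoles of a 30-nt RNA substrate for 1 h at 37 °C across several added MgCl2 levels (1–48 mM), then stopped with EDTA. Products were reverse transcribed from a substrate-complementary primer, PCR-amplified and sequenced (HiSeq 4000). Fitness is a variant's read proportion after selection over that before, normalised to wild type.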
C82G A111G A120C A145U C150U U176G showed a reverse-splicing fitness of 0.00869.
Variant C82G A111G A120C A145U C150U U176C has a reverse-splicing fitness of 0.0348.
For C82G A111G A120G A145C C150G C169U U176C, the reverse-splicing fitness was 0.0147.
For C82G A111G A120G A145C C150G C169U U176G, the reverse-splicing fitness was 0.00615.
Variant C82G A111G A120G A145C C150G C169U U176A has a reverse-splicing fitness of 0.0139.
For C82G A111G A120G A145C C169U U176G, the reverse-splicing fitness was 0.00427.
With C82G A111G A120G A145C C169U U176C the reverse-splicing fitness was 0.0166.
For C82G A111G A120G A145C C169U U176A, the reverse-splicing fitness was 0.0179.
With C82G A111G A120G A145U C150A C169U U176G the reverse-splicing fitness was 0.00582.
Variant C82G A111G A120G A145U C150A C169U U176C has a reverse-splicing fitness of 0.0177.
C82G A111G A120G A145U C150A C169U U176A showed a reverse-splicing fitness of 0.0196.
C82G A111G A120C C150G U176G gave a reverse-splicing fitness of 0.00412.
Variant C82G A111G A120C C150G U176A has a reverse-splicing fitness of 0.00594.
C82G A111G A120C C150G U176C gave a reverse-splicing fitness of 0.0121.
C82G A111G A120G A145C C169A U176C gave a reverse-splicing fitness of 0.0114.
With C82G A111G A120G A145C C169A U176G the reverse-splicing fitness was 0.00415.
C82G A111G A120G A145C C169A U176A showed a reverse-splicing fitness of 0.0165.
With C82G A111G A120G A145U C150G U176C the reverse-splicing fitness was 0.0158.
For C82G A111G A120G A145U C150G U176G, the reverse-splicing fitness was 0.00436.
C82G A111G A120G A145U C150G U176A showed a reverse-splicing fitness of 0.00801.
Work on C82G A111G A120G A145C C150G U176G yielded a reverse-splicing fitness of 0.00368.
In the case of C82G A111G A120G A145C C150G U176C, the reverse-splicing fitness is reported as 0.0133.
For C82G A111G A120G A145C C150G U176A, the reverse-splicing fitness was 0.0082.
Work on C82G A111G A120G C169U U176A yielded a reverse-splicing fitness of 0.0199.
C82G A111G A120C A145U C169U gave a reverse-splicing fitness of 0.0157.
Variant C82G A111G A120C A145U C169A has a reverse-splicing fitness of 0.00712.
With C82G A111G A120C A145U C169G the reverse-splicing fitness was 0.00799.
With C82G A111G A120C C169A the reverse-splicing fitness was 0.0101.
In the case of C82G A111G A120C C169G, the reverse-splicing fitness is reported as 0.00841.
C82G A111G A120C C169U gave a reverse-splicing fitness of 0.0179.
Variant C82G A111G A120G A145G U176C has a reverse-splicing fitness of 0.0204.
C82G A111G A120G A145G U176A showed a reverse-splicing fitness of 0.0129.
C82G A111G A120G A145G U176G gave a reverse-splicing fitness of 0.00696.
C82G A111G A120G A145C U176A showed a reverse-splicing fitness of 0.0154.
C82G A111G A120G A145C U176G showed a reverse-splicing fitness of 0.0063.
In the case of C82G A111G A120G A145C U176C, the reverse-splicing fitness is reported as 0.0181.
C82G A111G A120G A145G C169A U176A gave a reverse-splicing fitness of 0.0166.
For C82G A111G A120G A145G C169A U176C, the reverse-splicing fitness was 0.0235.
Variant C82G A111G A120G A145G C169A U176G has a reverse-splicing fitness of 0.00443.
C82G A111G A120G C150A U176G showed a reverse-splicing fitness of 0.0109.
Work on C82G A111G A120G C150A U176A yielded a reverse-splicing fitness of 0.0148.
C82G A111G A120G C150A U176C gave a reverse-splicing fitness of 0.023.
C82G A111G A120G A145U C150A U176A showed a reverse-splicing fitness of 0.014.
In the case of C82G A111G A120G A145U C150A U176G, the reverse-splicing fitness is reported as 0.00563.
Work on C82G A111G A120G A145U C150A U176C yielded a reverse-splicing fitness of 0.0191.
Variant C82G A111G A120C C150G C169U U176A has a reverse-splicing fitness of 0.00806.
With C82G A111G A120C C150G C169U U176G the reverse-splicing fitness was 0.0076.
C82G A111G A120C C150G C169U U176C gave a reverse-splicing fitness of 0.0135.
With C82G A111G A120G A145U C169G U176A the reverse-splicing fitness was 0.0149.
Work on C82G A111G A120G A145U C169G U176C yielded a reverse-splicing fitness of 0.0187.
C82G A111G A120G A145U C169G U176G showed a reverse-splicing fitness of 0.0044.
C82G A111G A120C C150U C169A U176A showed a reverse-splicing fitness of 0.0199.
In the case of C82G A111G A120C C150U C169A U176C, the reverse-splicing fitness is reported as 0.0182.
C82G A111G A120C C150U C169A U176G showed a reverse-splicing fitness of 0.00693.
With C82G A111G A120C C150A C169U U176C the reverse-splicing fitness was 0.0175.
In the case of C82G A111G A120C C150A C169U U176G, the reverse-splicing fitness is reported as 0.00877.
With C82G A111G A120C C150A C169U U176A the reverse-splicing fitness was 0.0165.
In the case of C82G A111G A120C A145U C169A U176C, the reverse-splicing fitness is reported as 0.0149.
C82G A111G A120C A145U C169A U176G gave a reverse-splicing fitness of 0.00508.
With C82G A111G A120C A145U C169A U176A the reverse-splicing fitness was 0.0147.
C82G A111G A120C C150A C169A U176G showed a reverse-splicing fitness of 0.00841.
Work on C82G A111G A120C C150A C169A U176C yielded a reverse-splicing fitness of 0.0204.
Work on C82G A111G A120C C150A C169A U176A yielded a reverse-splicing fitness of 0.0223.
Variant C82G A111G A120G C169G U176A has a reverse-splicing fitness of 0.0194.
Work on C82G A111G A120G C169G U176G yielded a reverse-splicing fitness of 0.00487.
With C82G A111G A120G C169G U176C the reverse-splicing fitness was 0.0232.
Work on C82G A111G A120G A145C C150U U176G yielded a reverse-splicing fitness of 0.00599.
For C82G A111G A120G A145C C150U U176C, the reverse-splicing fitness was 0.0149.
Work on C82G A111G A120G A145C C150U U176A yielded a reverse-splicing fitness of 0.0118.
For C82G A111G A120G A145C C150G C169U, the reverse-splicing fitness was 0.00843.
For C82G A111G A120G A145C C150G C169G, the reverse-splicing fitness was 0.00841.
C82G A111G A120G A145C C150G C169A gave a reverse-splicing fitness of 0.00962.
Work on C82G A111G A120G A145G C150U C169U U176G yielded a reverse-splicing fitness of 0.00668.
With C82G A111G A120G A145G C150U C169U U176C the reverse-splicing fitness was 0.0177.
Variant C82G A111G A120G A145G C150U C169U U176A has a reverse-splicing fitness of 0.0177.
Work on C82G A111G A120G A145U C150A C169A U176C yielded a reverse-splicing fitness of 0.0159.
Variant C82G A111G A120G A145U C150A C169A U176G has a reverse-splicing fitness of 0.00495.
Variant C82G A111G A120G A145U C150A C169A U176A has a reverse-splicing fitness of 0.0175.
Variant C82G A111G A120G A145U C150G C169A has a reverse-splicing fitness of 0.01.
Variant C82G A111G A120G A145U C150G C169G has a reverse-splicing fitness of 0.00827.
Work on C82G A111G A120G A145U C150G C169U yielded a reverse-splicing fitness of 0.00943.
C82G A111G A120C U176A showed a reverse-splicing fitness of 0.0255.
With C82G A111G A120C U176C the reverse-splicing fitness was 0.045.
C82G A111G A120C U176G showed a reverse-splicing fitness of 0.011.
